Literature values, collected in article PMC6685676.
pKi: −log10 of the molar value. Like-named read-outs stand apart in the source and are kept apart here.

Columns and labels:
[1] = target: angiotensin III (Homo sapiens) (UniProt P01019)
[2] = target: angiotensin III (Homo sapiens) (UniProt P01019); remark: listed apart in the source

Sequence of UniProt P01019 (P01019 whole entry, looked up): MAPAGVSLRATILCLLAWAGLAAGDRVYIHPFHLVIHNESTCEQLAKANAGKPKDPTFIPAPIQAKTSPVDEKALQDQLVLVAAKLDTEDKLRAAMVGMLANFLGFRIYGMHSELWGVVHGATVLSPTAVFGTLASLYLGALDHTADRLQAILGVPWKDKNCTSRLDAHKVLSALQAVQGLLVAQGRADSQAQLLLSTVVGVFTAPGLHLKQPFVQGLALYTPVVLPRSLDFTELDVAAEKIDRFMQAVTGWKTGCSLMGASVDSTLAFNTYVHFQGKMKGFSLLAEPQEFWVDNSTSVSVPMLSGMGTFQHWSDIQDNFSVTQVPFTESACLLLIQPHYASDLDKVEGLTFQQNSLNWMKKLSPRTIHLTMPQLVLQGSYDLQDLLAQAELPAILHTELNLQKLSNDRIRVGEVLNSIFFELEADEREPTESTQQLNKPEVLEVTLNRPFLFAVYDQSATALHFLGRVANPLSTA

Substance	pKi [1]	pKi [2]
DPP3 (from UniProt O55096)	7.62	
DPP3 (from UniProt Q9NY33)		7.06
